Measured values from patent publication US9815881B2, “Method of inducing labor or treating pre-eclampsia by administering relaxin analogs” (The Board of Trustees of the Leland Stanford Junior …, priority 2009, dated 2017).
Where no end group is shown, it is not given here.

Key:
LGR7 = target: T1, LGR7 (Homo sapiens, UniProt Q9HBX9); experiment: Receptor-activation analysis: cAMP production in LGR7-expressing HEK293T cells; format: cell-based; conditions: for pEC50 on the activation of LGR7: HEK293T cells stably expressing LGR7, mean ± S.E., ND = pEC50 not measurable
T1 construct: HEK293T cells stably expressing recombinant LGR7 or LGR8; expressed in transfected cells
T1 sequence (Q9HBX9 1-757): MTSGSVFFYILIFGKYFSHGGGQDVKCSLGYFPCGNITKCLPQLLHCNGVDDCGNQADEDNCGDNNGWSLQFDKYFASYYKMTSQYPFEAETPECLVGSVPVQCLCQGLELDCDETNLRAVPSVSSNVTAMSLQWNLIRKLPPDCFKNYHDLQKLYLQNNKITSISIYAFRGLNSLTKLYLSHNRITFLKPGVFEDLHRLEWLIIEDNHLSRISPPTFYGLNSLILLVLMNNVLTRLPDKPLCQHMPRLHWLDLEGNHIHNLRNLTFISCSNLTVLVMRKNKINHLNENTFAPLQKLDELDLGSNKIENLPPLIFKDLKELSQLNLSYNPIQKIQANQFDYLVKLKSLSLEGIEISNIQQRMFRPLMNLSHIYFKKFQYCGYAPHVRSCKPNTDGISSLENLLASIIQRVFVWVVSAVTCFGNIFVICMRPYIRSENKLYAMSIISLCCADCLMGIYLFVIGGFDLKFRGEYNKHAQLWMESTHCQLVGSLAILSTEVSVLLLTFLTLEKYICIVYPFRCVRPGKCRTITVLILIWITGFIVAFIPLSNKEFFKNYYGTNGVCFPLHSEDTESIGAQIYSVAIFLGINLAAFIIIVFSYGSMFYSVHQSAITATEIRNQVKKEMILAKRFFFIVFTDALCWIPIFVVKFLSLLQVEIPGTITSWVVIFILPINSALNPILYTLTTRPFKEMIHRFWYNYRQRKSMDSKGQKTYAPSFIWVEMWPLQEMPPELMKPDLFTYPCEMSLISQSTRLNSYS
Protocol: (§1) The bioactivity of relaxin family peptides was determined based on the stimulation of adenylate cyclase activity in HEK293T cells stably expressing recombinant LGR7 or LGR8. Stable LGR7- or LGR8-expressing cells were maintained in Dulbecco's modified Eagle's medium/F-12 media supplemented with […] Zeocin (Invitrogen). After seeding at a density of 2×10^5 cells per well in 500 μl of Dulbecco's modified Eagle's medium/F-12 medium containing 0.1% bovine serum albumin in 48-well plates, cells were preincubated at 37° C. for 30 min in the presence of 0.25 mM 3-isobutyl-1-methylxanthine before treatment with increasing concentrations of peptides (from 0 to 100 nM) in quadruplicate. Twelve hours after treatment, the culture was reacted with acetic anhydride/triethylamine, and total cAMP content in cell lysates was measured using a specific cAMP radioimmunoassay. A nontagged human RLN2 peptide was used as a standard to verify the bioactivity of tagged RLN2 peptides.
(§2) Receptor-activation and receptor binding activity curves generated in nonlinear regression analyses (Prism; GraphPad Software, San Diego, Calif.) were evaluated relative to the samples without hormone treatment. In all cases data are reported as the mean±S.E. of assays in triplicate or quadruplicate. Statistically significant responses (p<0.05) were determined for each stimulated response to the average nonspecific response from control samples using analysis of variance and Student's t test.

LGR8 = target: T2, LGR8 (Homo sapiens, UniProt Q8WXD0); experiment: Receptor-activation analysis: cAMP production in LGR8-expressing HEK293T cells; format: cell-based; conditions: for LGR8-activation activity (result in words): LGR8-expressing HEK293T cells
T2 construct: HEK293T cells stably expressing recombinant LGR7 or LGR8; expressed in transfected cells
T2 sequence (Q8WXD0 whole entry): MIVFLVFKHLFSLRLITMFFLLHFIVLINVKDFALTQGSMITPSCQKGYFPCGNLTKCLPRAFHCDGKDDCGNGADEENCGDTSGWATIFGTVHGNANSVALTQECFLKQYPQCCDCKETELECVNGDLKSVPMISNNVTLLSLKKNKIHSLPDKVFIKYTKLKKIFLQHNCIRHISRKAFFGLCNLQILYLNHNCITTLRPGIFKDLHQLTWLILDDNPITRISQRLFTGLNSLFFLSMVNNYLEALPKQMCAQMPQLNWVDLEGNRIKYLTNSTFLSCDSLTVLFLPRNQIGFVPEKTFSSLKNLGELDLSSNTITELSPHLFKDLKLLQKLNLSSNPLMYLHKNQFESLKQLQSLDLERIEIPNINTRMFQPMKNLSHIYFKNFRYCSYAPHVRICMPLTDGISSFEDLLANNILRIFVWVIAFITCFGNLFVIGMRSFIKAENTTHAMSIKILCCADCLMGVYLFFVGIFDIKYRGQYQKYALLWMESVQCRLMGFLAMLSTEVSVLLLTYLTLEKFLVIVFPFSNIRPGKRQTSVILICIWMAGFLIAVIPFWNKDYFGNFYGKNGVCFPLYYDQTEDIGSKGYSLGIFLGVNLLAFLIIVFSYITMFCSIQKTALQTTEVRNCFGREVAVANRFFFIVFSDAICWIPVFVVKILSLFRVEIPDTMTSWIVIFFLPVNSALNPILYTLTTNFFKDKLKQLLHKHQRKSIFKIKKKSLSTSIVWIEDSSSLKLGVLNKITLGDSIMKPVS
Protocol: as §1, §2

Molecule | pEC50 on the activation of LGR7 (LGR7) | LGR8-activation activity (result in words) (LGR8) | further results
RLN2 C-18: tagged RLN2 from construct with B and A chains linked by a truncated C-domain of 18 amino acids (chain 1 SWMEEVIKLCGRELVRAQIAICGMSTWSHHHHHH; chain 2 QLYSALANKCCHVGCTKRSLARFC; not fully specified; ends and bridges not checked) | 8.74 ± 0.09 | – | –
RLN2 C-28: tagged RLN2 from construct with B and A chains linked by a truncated C-domain of 28 amino acids (chain 1 SWMEEVIKLCGRELVRAQIAICGMSTWSHHHHHH; chain 2 QLYSALANKCCHVGCTKRSLARFC; not fully specified; ends and bridges not checked) | 8.66 ± 0.07 | – | –
RLN2 C-104: tagged RLN2 derived from the construct containing a 104-amino acid C domain sequence (chain 1 SWMEEVIKLCGRELVRAQIAICGMSTWSHHHHHH; chain 2 QLYSALANKCCHVGCTKRSLARFC; not fully specified; ends and bridges not checked) | 8.74 ± 0.05 | – | –
RLN2 K^A17D: RLN2 mutant with aspartic acid at the LysA17 position (chain 1 SWMEEVIKLCGRELVRAQIAICGMSTWSHHHHHH; chain 2 QLYSALANKCCHVGCTDRSLARFC; not fully specified; ends and bridges not checked) | – | did not exhibit an enhanced LGR8-activation activity | –
RLN2 K^A17G: RLN2 mutant with glycine at the LysA17 position (chain 1 SWMEEVIKLCGRELVRAQIAICGMSTWSHHHHHH; chain 2 QLYSALANKCCHVGCTGRSLARFC; not fully specified; ends and bridges not checked) | – | did not exhibit an enhanced LGR8-activation activity | –
RLN2 K^A17Q: RLN2 mutant with glutamine at the LysA17 position (chain 1 SWMEEVIKLCGRELVRAQIAICGMSTWSHHHHHH; chain 2 QLYSALANKCCHVGCTQRSLARFC; not fully specified; ends and bridges not checked) | – | did not exhibit an enhanced LGR8-activation activity | –
RLN2^A19-20: RLN2 mutant with alanine substitution at the A19-20 positions of the A chain (chain 1 SWMEEVIKLCGRELVRAQIAICGMSTWSHHHHHH; chain 2 QLYSALANKCCHVGCTKRAAARFC; not fully specified; ends and bridges not checked) | – | – | LGR7-activation activity (result in words) (LGR7; LGR7-expressing HEK293T cells): decreased LGR7-activation activities
WT RLN2 (His1): recombinant wild type RLN2 with N-terminal Myc tag and His6 tag at the N or C terminus of the B chain (position 1) (chain 1 SWMEEVIKLCGRELVRAQIAICGMSTWS; chain 2 QLYSALANKCCHVGCTKRSLARFC; not fully specified; ends and bridges not checked; also: N-terminal Myc tag) | 8.66 ± 0.09 | – | –
WT INSL3: recombinant wild type human insulin-like 3 (protein, left off: small tags and cut ends) chain 1: PTPEMREKLCGHHFVRALVRVCGGPRWSTEAHHHHHH chain 2: AAATNPARYCCLSGCTQQDLLTLCPY | – | selectively activated | pEC50 on the activation of LGR8 (LGR8; HEK293T cells stably expressing LGR8, mean ± S.E., ND = pEC50 not measurable): 9.03 ± 0.05
